The results in this text go back to paper PMC4516351, “Est16, a New Esterase Isolated from a Metagenomic Library of a Microbial Consortium Specializing in Diesel Oil Degradation” (PLoS ONE, 2015).

Assay in all cases: purified protein
Common to all, as to type: biochemical, uncultured bacterium

Data set [1] has as its system T1, CCCC(=O)Oc1ccc([N+](=O)[O-])cc1.
T1 construct: full-length ORF (906 bp, 302 residues), pET28a, N-terminal His6-tag and thrombin site, tag cutting not mentioned; E. coli BL21(DE3); IMAC and SEC
The following applies: 50 mM Tris-HCl pH 8.0, 30°C, 0.3% (v/v) triton X-100, 15 nM enzyme.

Data set [2] deals with T2, CCCCC(=O)Oc1ccc([N+](=O)[O-])cc1.
T2 construct: full-length ORF (906 bp, 302 residues), pET28a, N-terminal His6-tag and thrombin site, tag cutting not mentioned; E. coli BL21(DE3); IMAC and SEC
The following applies: 50 mM Tris-HCl pH 8.0, 30°C, 0.3% (v/v) triton X-100, 15 nM enzyme.

In data set [3] the test system is T3, CCCCCCCC(=O)Oc1ccc([N+](=O)[O-])cc1.
T3 construct: full-length ORF (906 bp, 302 residues), pET28a, N-terminal His6-tag and thrombin site, tag cutting not mentioned; E. coli BL21(DE3); IMAC and SEC
The following applies: 50 mM Tris-HCl pH 8.0, 30°C, 0.3% (v/v) triton X-100, 15 nM enzyme.

Data set [4] relates to T4, CCCCCCCCCC(=O)Oc1ccc([N+](=O)[O-])cc1.
T4 construct: full-length ORF (906 bp, 302 residues), pET28a, N-terminal His6-tag and thrombin site, tag cutting not mentioned; E. coli BL21(DE3); IMAC and SEC
The following applies: 50 mM Tris-HCl pH 8.0, 30°C, 0.3% (v/v) triton X-100, 15 nM enzyme.

The subject of data set [5] is T5, CCCCCCCCCCCC(=O)Oc1ccc([N+](=O)[O-])cc1.
T5 construct: full-length ORF (906 bp, 302 residues), pET28a, N-terminal His6-tag and thrombin site, tag cutting not mentioned; E. coli BL21(DE3); IMAC and SEC
The following applies: 50 mM Tris-HCl pH 8.0, 30°C, 0.3% (v/v) triton X-100, 50 nM enzyme.

Broadly, the Km is the concentration of substrate that gives half-maximal velocity. For orientation: Vmax means the rate approached at saturating substrate. In general, kcat refers to the maximal rate divided by the concentration of active sites. What is called kcat/Km is the turnover number divided by the Michaelis constant. On to Est16 (uncultured bacterium), for which the Michaelis constant (Km) came to 225.1 ± 31.8 µM in data set [1]; 320.4 ± 32.5 µM in data set [2]; 628.6 ± 101.4 µM in data set [3]; 1066.0 ± 116.9 µM in data set [4]; 969.5 ± 42.5 µM in data set [5]. Also, the Vmax in data set [1] came out at 206 µM/min; in data set [2], 197 µM/min; in data set [3], 128 µM/min; in data set [4], 82.7 µM/min; in data set [5], 22.9 µM/min. Besides, the kcat in data set [1] is 220 ± 9.72 s⁻¹; in data set [2], 211 ± 7.26 s⁻¹; in data set [3], 137 ± 9.19 s⁻¹; in data set [4], 88.4 ± 4.81 s⁻¹; in data set [5] it was 24.5 ± 0.535 s⁻¹. Moreover, the specificity constant (kcat/Km) is 998000 ± 142000 M⁻¹ s⁻¹ in data set [1]; 665000 ± 66700 M⁻¹ s⁻¹ in data set [2]; 223000 ± 36700 M⁻¹ s⁻¹ in data set [3]; 83300 ± 10000 M⁻¹ s⁻¹ in data set [4]; 25000 ± 1670 M⁻¹ s⁻¹ in data set [5].
